# Reference: article PMC3849214
# Test system: c1ccc([C@H]2CO2)cc1
# Experiment: colorimetric periodate-coupled diol assay, A290, steady state
# Assay type: biochemical, Streptomyces globisporus
# Conditions: pH 8.0, 50 mM sodium phosphate, 25 °C, 3 mM sodium periodate
substance,measurement,value
SgcF (Streptomyces globisporus; Q237M),Km,4.1 ± 0.8 mM
same,kcat/Km,780 M⁻¹ s⁻¹
